Laboratory results from patent US20230242671A1 (Eli Lilly, published 2023).

Legend:
[1] = molecular target: T1, CaptureSelect Kappa XL ligand; assay: CaptureSelect Kappa XL affinity column after Protein A
T1 construct: also called Biotin-KappaXL; Kappa XL column

[2] = molecular target: T1, CaptureSelect Kappa XL ligand; assay: ELISA, antibody titrated on goat anti-human-IgG, Biotin-KappaXL at 1 ug/ml
Experimental: Binding of the light chain Fab region formats of Table 1a for exemplified IgG hetermabs to Kappa XL ligand may be assessed via ELISA. Briefly, 96-well flat bottom ELISA plates are coated with 2 ug/mL goat anti-human-IgG protein at 100 ul/well and incubated overnight at 4° C. The following day, plates are washed 3× with wash buffer (0.05% PBS-Tween 20) and blocked for 1 hr with blocking buffer (casein, 200 μL/well) at room temperature (RT). Plates are washed 3× with wash buffer, and binding proteins (as shown in Table 5) are added at 10 μg/mL and serially diluted at 1:3 at 100 uL/well in DPBS (Dulbecco's HyClone). Plates are incubated at RT for 1 hr, are washed 3× with wash buffer and Biotin-KappaXL is added at 1 ug/ml at 100 uL/well. Plates are then incubated for 1 hr at RT, washed 3×, and 100 uL/well of SA-AP is added to each well and incubated 30 min at RT. Plates are then washed 3×, and 100 uL/well PNAP substrate is added. Reactions are stopped and the optical density is measured using a colorimetric microplate reader set to 405 nm.

Protein A = molecular target: T2, Protein A (UniProt P38507 37-327, biotin (site not stated)); assay: ELISA, antibody titrated on goat anti-human-kappa, Biotin-Protein A at 0.5 ug/ml
T2 construct: Reagent; also called Biotin-Protein A; Protein A ligand
Experimental: Binding of the heavy chain Fc region formats of Table 1b for exemplified IgG heteromabs to Protein A ligand may be assessed via ELISA. Briefly, 96-well flat bottom Elisa plates are coated with 2 ug/mL goat anti-human-kappa protein at 100 ul/well and incubated overnight at 4° C. The following day, plates are washed 3× with wash buffer 0.05% PBS-Tween 20 (PBS-T)) and blocked for 1 hr with blocking buffer (casein, 200 µL/well) at room temperature (RT). Plates are washed 3× with wash buffer, and binding proteins (as shown in Table 4) are added to individual wells at 10 μg/mL and serially diluted 1:3, at a volume of 100 uL/well in PBS-T. Plates are incubated at RT for 1 hr, and washed 3× with wash buffer. Biotin-Protein A at 0.5 ug/ml is added at 100 uL/well and plates are incubated for 1 hr at RT, washed 3×, and 100 uL/well of streptavidin labeled alkaline phosphatase (SA-AP) is added to each well. Plates are incubated 30 min at RT. Plates are then washed 3×, and 100 uL/well of p-Nitrophenyl Phosphate, Disodium Salt (PNAP)(Thermo Fisher Scientific) substrate is added. Reactions are stopped and optical density is measured using a colorimetric microplate reader set to 405 nm.

B1: cMet-BAH10 parental IgG1 heteromab (bispecific antibody)
heavy 1: EVQLVESGGGLVQPGGSLRLSCAASGYTFTSYWLHWVRKAPGKGLEWVGMIDPSNSDTRFNPEFKDRFTISADTSKNTAYLQMNSLRAEDTAVYYCATYRSYVTPLDYWGQGTLVTVSSASTKGPSVFPLAPSSKSTSGGTAALGCLVKDYFPEPVTVSWNSGALTSGVATGPAVLQSSGLYSLSSVVTVPSSSLGTQTYICNVNHKPSNTKVDKKVEPKSCDKTHTCPPCPAPEAAGGPSVFLFPPKPKDTLMISRTPEVTCVVVDVSHEDPEVKFNWYVDGVEVHNAKTKPREEQYNSTYRVVSVLTVLHQDWLNGKEYKCKVSNKALPAPIEKTISKAKGQPREPQVYTLPPSREEMTDNQVSLTCLVKGFYPSDIAVEWESNGQPENNYKTTPPVLMSDGSFFLASKLTVDKSRWQQGNVFSCSVMHEALHNHYTQKSLSLSPGK
light 1: RIQMTQSPSSLSASVGDRVTITCKSSQSLLYTSSQKNYLAWYQDKPGKAPKLLIYWASTRESGVPSRFSGSGSGTDFTLTISSLQPEDFATYYCQQYYAYPWTFGQGTKVEIKRTVAAPSVFIFPPSDEQLKSGTASVVCYLNNFYPREAKVQWKVDNALQSGNSQESVTEQDSKDSTYSLWSTLTLSKADYEKHKVYACEVTHQGLSSPVTKSFNRGEC
heavy 2: QVQLVQSGAEVKKPGSSVKVSCKASGYTFTTYYLHWVRYAPGQGLEWMGWIYPGNVHAQYNEKFKGRVTITADKSTSTAYMELSSLRSEDTAVYYCARSWEGFPYWGRGTTVTVSSASTKGPSVFPLAPCSKSTSGGTAALGCLVKDYFPEPVTVSWNSGALTSGVHTFPAVLQSSGLYSLSSVVTVPSSSLGTQTYICNVNHKPSNTKVDKKVEPDSGDKTHTCPPCPAPEAAGGPSVFLFPPKPKDTLMISRTPEVTCVVVDVSHEDPEVKFNWYVDGVEVHNAKTKPREEQYNSTYRVVSVLTVLHQDWLNGKEYKCKVSNKALPAPIEKTISKAKGQPRRPRVYTLPPSREEMTKNQVSLVCLVKGFYPSDIAVEWESNGQPENNYKTTPPVLDSDGSFFLYSVLTVDKSRWQQGNVFSCSVMHEALHNHYTQKSLSLSPGK
light 2: DIQMTQSPSSLSASVGDRVTITCKASQNVGINVAWYQRKPGDAPKSLISSASYRYSGVPSRFSGSGSGTDFTLTISSLQPEDFATYFCQQYDTYPFTFGQGTKVEIKRTVAAPSVFIFPPSKEQLKSGTASVVCLLNNFYPREAKVQWKVDNALQSGNSQESVTEQDSKDSTYSLSSTLTLSKADYEKHKVYACEVTHQGLSSPVTKSFNRGEC
notes: control; also called cMet-BAH10 IgG1 heteromab; cMet-BAH10 IgG heteromab
In the case of B1, the “% Elution” value [1] is reported as 94.5%, the “% Flow Through (FT)” value [1] is reported as 5.5% and the EC50 [2] is reported as 0.57 nM. For the same binder, the EC50 (Protein A) was 0.48 nM.
